The record followed here is article PMC8564274 (Signal Transduction and Targeted Therapy, 2021).

This test has as its target SARS-CoV-2 receptor-binding domain (RBD) (SARS-CoV-2, UniProt P0DTC2). In words: BLI. Conditions: both partners purified.

B1: CB6 (antibody, V domains shown)
VH: EVQLVESGGGLVQPGGSLRLSCAASGFTVSSNYMSWVRQAPGKGLEWVSVIYSGGSTFYADSVKGRFTISRDNSMNTLFLQMNSLRAEDTAVYYCARVLPMYGDYLDYWGQGTLVTVSS
VL: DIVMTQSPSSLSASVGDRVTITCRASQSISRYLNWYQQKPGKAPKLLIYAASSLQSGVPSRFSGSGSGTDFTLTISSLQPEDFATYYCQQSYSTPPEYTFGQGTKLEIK
As for B1, the binding result is reported as “binds”.
